Read-outs that look alike come from different tables or passages of the source.
How the values were obtained:
[1] = target: SCM expressed on the surface of S. canis G361 (Streptococcus canis (endogenous in strain G361)); assay: radioligand binding
[2] = target: human plasminogen (human); assay: radioligand binding
[3] = target: SCM expressed on the surface of S. canis G361 (Streptococcus canis (endogenous in strain G361)); assay: radioligand binding; remark: listed apart in the source
[4] = target: human plasminogen (human); assay: SPR

| Substance | percent binding of 125I-SCM to G361 bacteria [1] | percent binding of 125I-plasminogen to G361 left with 1.0 µM nonlabeled SCM [2] | percent binding of 125I-SCM to G361 (1 × 10^7 bacteria) [3] | percent binding of 125I-SCM to G361 (2 × 10^7 bacteria) [3] | percent binding of 125I-SCM to G361 (4 × 10^6 bacteria) [3] | percent binding of 125I-SCM to G361 (control without inhibitor) [3] | percent binding of 125I-SCM to G361 bacteria [3] | percent binding of 125I-SCM to G361 left with 1.0 µM nonlabeled SCM [3] | percent binding of 125I-SCM to G361 left with 10.0 µg nonlabeled SCM [3] | percent specific binding of 125I-SCM to G361 bacteria [3] | Kd [4] |
| --- | --- | --- | --- | --- | --- | --- | --- | --- | --- | --- | --- |
| purified recombinant SCM, M-like protein of S. canis (derived from strain G361) (natural protein) | 25.7% | 41.3% | 13.1% | 19.3% | 6.5% | 28.7% | 23.5% | 15.8% | 4.2% | 20.5% |  |
| recombinant S. canis enolase (strain G361) (from UniProt A0A2D4DNT6 1-435) (enzyme) |  |  |  |  |  |  |  |  |  |  | 0.8 µM |
